Data on two proteins can be found in patent publication US20060216339.

Data set [1] concerns the target T1, peptide D, RKRSRAE (H2Btide, type-I PKG peptide substrate).
T1 chain: RKRSRAE

The target of data set [2] is T2, peptide A, RKISASGP (type-I PKG peptide substrate).
T2 chain: RKISASGP

Data set [3] addresses T3, BPDEtide, RKISASEFDRPLR (peptide B, type-I PKG peptide substrate).
T3 chain: RKISASEFDRPLR

Data set [4] deals with purified recombinant VASP-GST (vasodilator-stimulated phosphoprotein with C-terminal GST epitope tag), P70460.
Data set [5] has as its target T4, peptide C, QKRPRRKDTP (type-II PKG substrate).
T4 chain: QKRPRRKDTP

Data set [6] addresses recombinant mammalian ERK2 (MAPK p42 protein, bacterial recombinant, already containing phospho-tyrosine-185).

Chain of recombinant mammalian ERK2 (MAPK p42 protein, bacterial recombinant, already containing phospho-tyrosine-185) (P28482 2-360): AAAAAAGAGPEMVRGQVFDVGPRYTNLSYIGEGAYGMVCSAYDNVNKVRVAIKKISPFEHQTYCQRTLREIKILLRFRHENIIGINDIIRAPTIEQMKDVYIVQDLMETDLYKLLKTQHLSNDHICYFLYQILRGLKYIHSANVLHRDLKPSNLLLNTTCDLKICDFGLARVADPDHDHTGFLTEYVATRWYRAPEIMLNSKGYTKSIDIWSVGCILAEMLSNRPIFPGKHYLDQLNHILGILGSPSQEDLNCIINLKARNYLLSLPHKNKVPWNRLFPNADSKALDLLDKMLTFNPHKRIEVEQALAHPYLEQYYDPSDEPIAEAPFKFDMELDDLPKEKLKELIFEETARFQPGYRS
Chain of purified recombinant VASP-GST (vasodilator-stimulated phosphoprotein with C-terminal GST epitope tag), P70460 (P70460 whole entry): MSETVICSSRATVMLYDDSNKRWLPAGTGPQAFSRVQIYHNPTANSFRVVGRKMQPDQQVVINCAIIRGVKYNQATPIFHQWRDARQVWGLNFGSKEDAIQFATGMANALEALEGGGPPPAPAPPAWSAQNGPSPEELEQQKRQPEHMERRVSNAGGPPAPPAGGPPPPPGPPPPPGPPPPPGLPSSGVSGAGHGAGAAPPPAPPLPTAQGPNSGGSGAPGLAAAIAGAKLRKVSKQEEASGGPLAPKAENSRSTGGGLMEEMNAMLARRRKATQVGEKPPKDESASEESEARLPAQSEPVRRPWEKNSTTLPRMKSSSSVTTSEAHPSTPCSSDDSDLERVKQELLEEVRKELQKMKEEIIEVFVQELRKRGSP

B1: recombinant bovine PKG type-Iα (protein)
chain: MSELEEDFAKILMLKEERIKELEKRLSEKEEEIQELKRKLHKCQSVLPVPSTHIGPRTTRAQGISAEPQTYRSFHDLRQAFRKFTKSERSKDLIKEAILDNDFMKNLELSQIQEIVDCMYPVEYGKDSCIIKEGDVGSLVYVMEDGKVEVTKEGVKLCTMGPGKVFGELAILYNCTRTATVKTLVNVKLWAIDRQCFQTIMMRTGLIKHTEYMEFLKSVPTFQSLPEEILSKLADVLEETHYENGEYIIRQGARGDTFFIISKGKVNVTREDSPNEDPVFLRTLGKGDWFGEKALQGEDVRTANVIAAEAVTCLVIDRDSFKHLIGGLDDVSNKAYEDAEAKAKYEAEAAFFANLKLSDFNIIDTLGVGGFGRVELVQLKSEESKTFAMKILKKRHIVDTRQQEHIRSEKQIMQGAHSDFIVRLYRTFKDSKYLYMLMEACLGGELWTILRDRGSFEDSTTRFYTACVVEAFAYLHSKGIIYRDLKPENLILDHRGYAKLVDFGFAKKIGFGKKTWTFCGTPEYVAPEIILNKGHDISADYWSLGILMYELLTGSPPFSGPDPMKTYNIILRGIDMIEFPKKIAKNAANLIKKLCRDNPSERLGNLKNGVKDIQKHKWFEGFNWEGLRKGTLTPPIIPSVASPTDTSNFDSFPEDNDEPPPDDNSGWDIDF
B1: the “kinase activity on peptide substrates” value in data set [1] is reported as “both kinases readily phosphorylated several PKG peptide substrates”; in data set [2], “both kinases readily phosphorylated several PKG peptide substrates”; in data set [3], “both kinases readily phosphorylated several PKG peptide substrates”; in data set [5], “neither kinase phosphorylated peptide C”. In addition, the “phosphorylation of VASP at serine 239 (Western blot with anti-phospho-VASP (Ser 239))” value in data set [4] is “both the bovine and Aplysia kinases phosphorylated this site”.

B2: recombinant His-apPKG (Aplysia protein kinase G with N-terminal His tag, expressed in baculovirus/Sf9 cells) (protein)
chain: MGNGASSNTHFTIDGESMDVHKVKALVPELRHELRRRDKIIEQYDSQVRQKDELLKEKEAEIARLKEEVHKLKSVLQLKVDTLKAQESKPDLLSTIDENQAEPTAPRGPAKKQGVSGESPSSKTLGYVDLTHHEKDFKSKQLIKDAILSNEFIKVLAATQLREIIDCMYEKRVPKACYIIKGGERGEHLYVCADGLLEVHKEDKRLGEIKSGGLFGELAILYNCKRTASVKAVTHTTLWVLDRRVFQAIMMKTGLQRREENMAFLKSVPLLKNLPSDKLAKMSDVLEYDFFHENEYIIREGAAGDTFFILNKGEVKVTQKIAGHAEPKEVRRLKRGDYFGEKALLSEDRRTANVIALPPGVECLTVDRESFTQFVGDLNELRNKDYGDEARGAERRSGSDSTVSPVSERPVAKEFENCSLDDLQLVTTLGMGGFGRVELVQLSKEKGKTFALKCLKKKHIVETRQQEHIYSEKKIMMEADSPFITKLHKTFRDRKYVYMLMEVCLGGELWTILRDRGNFDDLTARFCVACVLEAFSYLHAKGIIYRDLKPENLLLDARGYVKLVDFGFAKKIGVGKKTWTFCGTPEYVAPEIILNKGHDHSADYWSLGILMYELLNGTPPFSGSDPMRTYNIILKGIDHIEFPKKISRSAHVLIKKLCRDNPMERLGYGKNGISDIRKNKWFQGFDWDGLMDLTLTPPIVPKVKNPTDTSNFDSYPRDMDIAADELSGWDIDF
As to B2, the “kinase activity on peptide substrates” value in data set [1] was “both kinases readily phosphorylated several PKG peptide substrates”. For the same protein, the “kinase activity on peptide substrates” value in data set [2] is listed as “both kinases readily phosphorylated several PKG peptide substrates”. Besides, in data set [3], the “dual phosphorylation of ERK2 by apPKG in the presence of 1 µg of BPDEtide (Western blot with Ab^pTpYmapk)” value is “The activation was specific, because it was reduced in the presence of BPDEtide”; the “kinase activity (transfer of ^32P from [^32P]ATP to BPDEtide)” value is “Inactive apPKG was activated by 100 nM 8-Br-cGMP and readily phosphorylated BPDEtide”; the “kinase activity on peptide substrates” value is “both kinases readily phosphorylated several PKG peptide substrates”. In data set [4], the “phosphorylation of VASP at serine 239 (Western blot with anti-phospho-VASP (Ser 239))” value is “both the bovine and Aplysia kinases phosphorylated this site”. In data set [6], the “ERK2 activity (production of phospho-Elk1) compared with activation by MEK1” value is recorded as “apPKG produced an ERK2 with similar activity as that produced by MEK1”, the “activation of ERK2 (phosphorylation of Elk1 by ERK2 after incubation with apPKG)” value was “apPKG activated ERK2 to phosphorylate Elk1”, the “phosphorylation of ERK2 at T183 (Western blot with antibody to ERKpT183)” value is “there was an increase in the phosphorylation of the -T- in the presence of apPKG” and the “phosphorylation of ERK2 at Y185 (Western blot with antibody to ERKpY185)” value was “There was no increase in phosphorylation of the -Y- when ERK2 was incubated with apPKG”. In addition, in data set [5], the “kinase activity on peptide substrates” value is “neither kinase phosphorylated peptide C”.
